Laboratory results taken from patent US9675625B2, “Medicament comprising recombinant antibody against chemokine receptor CCR4” (KYOWA HAKKO KIRIN CO., LTD., priority 2003, dated 2017).

Legend:
CCR4/EL4 cells = experiment: in vitro cytotoxic activity (ADCC) of KM 2760 with cytokine-stimulated effector cells, LDH release; assay type: cell-based, mouse; settings: KM 2760 1 or 100 ng/mL, effector:target 15:1, 37° C. 4 hours, no cytokine, FIG. 1
Experimental: An effect of using anti-CCR4 human chimeric antibody KM 2760 (FERM BP-7054, WO 01/64754) and a cytokine in combination in an in vitro cytotoxic activity was measured by the following method.
A vein blood (50 mL) was collected from a healthy person, 0.5 mL of heparin sodium (manufactured by Shimizu Seiyaku K.K.) was added, and they were gently mixed. A mononuclear cell layer was separated from using a MONO-POLY separation solution (manufactured by Dainippon Pharmaceutical Co., Ltd.) according to the attached manual. […]
The target cell suspension (50 μL) prepared in the above (c) was added to each well of a 96-well U-shaped bottom plate containing the effector cells stimulated with the cytokine in the above (b) such that the concentration became 1×10^4 cells/well. […] After the reaction, the plate was subjected to centrifugation, and a lactic acid dehydrogenase (hereinafter referred to as LDH) activity in the supernatant was measured by obtaining an absorbance data with CytoTox96 Non-Radioactive Cytotoxic activity Assay (manufactured by Promega) according to the attached manual. […] Cytotoxic activity (%)=[(absorbance of a specimen)−(absorbance of effector cell spontaneous release)−(absorbance of target cell spontaneous release)]/[(absorbance of target cell total release)−(absorbance of target cell spontaneous release)]×100 (Formula 1)

CCRF-CEM cells [1] = experiment: antitumor effect of KM 2760 and Methotrexate in combination, CCRF-CEM cells grafted in nude mouse; assay type: in vivo, Balb/c nude mouse; settings: Day 7; KM 2760 800 μg per mouse Day 0 and Day 4; MTX 15 mg/kg Day 0 to Day 4; tail vein
Experimental: CCRF-CEM cells (human T cell leukemia cell line) were suspended in RPMI 1640 medium (Gibco BRL) at a concentration of 2×10^8 cells/mL, and 100 μL of the suspension was grafted into the ventral skin of Balb/c nude mice (CLEA Japan Inc. male). On Day 17 after the cell grafting, a diameter of a tumor was measured with calipers, and a tumor volume was calculated using formula 2 in Example 2.
Individuals having the tumor volume within the range of 121 to 348 mm^3 (on average 195 mm^3) were selected, and grouped such that the average tumor volume to be almost the same. Each of the following agents A to D was administered to the mice. Incidentally, the grouping day was defined as Day 0.
B. Group of administering KM 2760 alone: 800 μg of KM2760 was administered per mouse on Day 0 and Day 4.
C. Group of administering Methotrexate (hereinafter referred to as MTX; Methotrexate injection solution, Nippon Weisledary K.K.) alone: 15 mg/kg of MTX was administered per mouse for 5 days from Day 0 to Day 4. […]
The experiment was conducted with groups each consisting of five mice. […] On Day 7, the tumor volume was measured. The antitumor effect was evaluated by comparing average values of a tumor volume change (V/V0) when the tumor volume on Day 0 in each group was defined as V0.

CCRF-CEM cells [2] = experiment: antitumor effect of KM 2760 and vincristine in combination, CCRF-CEM cells grafted in nude mouse; assay type: in vivo, Balb/c nude mouse; settings: Day 10; KM 2760 800 μg per mouse Day 0 and Day 4; VCR 0.55 mg/kg Day 0; tail vein

B1: KM 2760: anti-CCR4 human chimeric antibody KM 2760 (FERM BP-7054, WO 01/64754) (antibody, V domains shown)
VH: EVQLVESGGDLMKPGGSLKISCAASGFIFSNYGMSWVRQTPDMRLEWVATISSASTYSYYPDSVKGRFTISRDNAENSLYLQMNSLRSEDTGIYYCGRHSDGNFAFGYWGRGTLVTVSA
VL: DVLMTQTPLSLPVSLGDQASISCRSSRNIVHINGDTYLEWYLQRPGQSPKLLIYKVSNRFSGVPDRFSGSGSGTDFTLKISRVEAEDLGVYYCFQGSLLPWTFGGGTRLEIRR
B1 was tested, and the cytotoxic activity (CCR4/EL4 cells) was “increased in a concentration-dependent manner”, the “T/C (V/V0 of group divided by V/V0 of negative control group)” value (CCRF-CEM cells [1]) was 0.65 and the “T/C (V/V0 of group divided by V/V0 of negative control group)” value (CCRF-CEM cells [2]) was 0.43.
